The data set in a line: yeast display, Sf9 membrane polyspecificity reagent, FACS + sequencing; frameworks hold sequencing errors. The method in brief: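 Nanobodies from a synthetic yeast display library (Saccharomyces cerevisiae BJ5465), induced 36–48 hours with galactose, were stained 1 hour at 4 °C with 10% biotinylated, detergent-solubilized Sf9 membrane reagent, enriched on streptavidin microbeads, then FACS-sorted. Anti-HA (expression) and streptavidin (reagent binding) fluorescence set low and high (top ~1%) gates. Polyreactivity labels come from the gate of origin. Genes were colony-PCR amplified, MiSeq 2 × 250 sequenced and filtered by CDR length.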
Consider “QVQLVESGGGLVQAGGSLRLSCAASGRTFPLNAMGWYRQAPGKERELVAAITWSGGRTYYADSVKGRFTISRDNAKNTVYLQMNSLKPEDTAVYYCATDRYAYKLYDYWGQGTQVTVSS”, for which the “polyreactivity (PSR sort gate)” value is “low polyreactivity”.

On to “QVQLVESGGGLVQAGGSLRLSCAASGRTFPLYGMGWYRQAPGKERELVATISRSGGSTYYADSVKGRFTISRDNAKNTVYLQMNSLKPEDTAVYYCIADRHYVPYYSRPRYIPYDYWGQGTQVTVSS”, for which the “polyreactivity (PSR sort gate)” value is on record as “high polyreactivity”. With “QVQLVESGGGLVQAGGSLRLSCAASGRTFPNYAMGWYRQAPGKERELVAAISYSGGTTYYADSVKGRFTISRDNAKNTVYLQMNSLKPEDTAVYDCNALRLGYGLFHYDYWGQGTQVTVSS”, the “polyreactivity (PSR sort gate)” value is on record as “low polyreactivity”.

On to “QVQLVESGGGLVQAGGSLRLSCAASGRTFPPTAMGGYRLAPGKEWELVAAISPSGASTYYADSVKGRFTISRDNAKNTVYLQMNSLKPEDTAVYYCAARRFIASPRYKYDYWGQGTQVTVSS”, for which the “polyreactivity (PSR sort gate)” value is listed as “high polyreactivity”. Under “QVQLVESGGGLVQAGGSLRLSCAASGRTFPPYAMGWYRQAPGKERELVAAISGSGASTYYADSVKGRFTISRDNAKNTVYLQMNSLKPEDTAVYYCARYRGYWGRYYGVDYGYWGQGTQVTVSS” stands “high polyreactivity”; under “QVQLVESGGGLVQAGGSLRLSCAASGRTFPRNGMGWYRQAPGKERELGAGISSAGSTNYADSVKGRFTISRDNAKNTFYLHMNSLKPEDTAVYYCNAVLRRRWVTFYYWGQGTQVTVSS”, “high polyreactivity”; under “QVQLVESGGGLVQAGGSLRLSCAASGRTFPRYAMGWYRQATGKERELVAAISVRAGITYYADSVKGRFTISRDNAKNTVYLQMNSLKPEDTAVYYCAKDHWTTSYDEGDYWGQGTQVTVSS”, “low polyreactivity”. As to “QVQLVESGGGLVQAGGSLRLSCAASGRTFPRYTMGWYRQAPGKERELVAASATGGSTYYADSVKGRFTISRDNAKNTVYLQMNSLKPEDTAVYYCAARPYSNRYVLGVYYWGQGTQVTVSS”, the “polyreactivity (PSR sort gate)” value is given as “high polyreactivity”. Under “QVQLVESGGGLVQAGGSLRLSCAASGRTFPSNAMGWYRQAPGKEREFVASITYSGGRTYYADSVKGRFTISRDNAKNTVYLQMNSLKPEDTAVYYCATARYRYHYYSWGQGTQVTVSS” stands “high polyreactivity”; under “QVQLVESGGGLVQAGGSLRLSCAASGRTFPVYAMGWYRQAPGKERELVASITGRGGSTYYADSVKGRFTISRDNAKNTVYLQMNSLKPEDTAVYYCARDWYKTYTGYYWGQGTQVTVSS”, “high polyreactivity”. Under “QVQLVESGGGLVQAGGSLRLSCAASGRTFPWYAMGWYRQAPGKERELVAAITYSVGSTYYADSVKGRFTISRDNAKNTVYLQMNSLKPEDTAVYYCAADSYPYRYRGKYSRLDYWGQGTQVTVSS” stands “low polyreactivity”.

With “QVQLVESGGGLVQAGGSLRLSCAASGRTFPYNAMGWYRQAPGKERELVAAISSGGTTNYADSVKGRFTISRDNAKNTVYLQMNSLKPEDTAVYYCAADSVDSSQFRRDYWGQGTQVTVSS”, the “polyreactivity (PSR sort gate)” value is given as “low polyreactivity”. Under “QVQLVESGGGLVQAGGSLRLSCAASGRTFPYNAMGWYRQAPGKERELVAAITQSAGRTYYADSVKGRFTISRDTAKYTVYFQMNSLKPEDTAVYYCNTVTVAYGYTRLYAQYYYWGQGTQVTVSS” stands “high polyreactivity”; under “QVQLVESGGGLVQAGGSLRLSCAASGRTFPYNAMGWYRQAPGKERELVAAITWRGGRTYYADSVKGRFTISRDYAKNTVYLQMNSLKPEDSAVYYCATVRVSRVRPFWNVWRSNYWGQGTQVTVSS”, “high polyreactivity”; under “QVQLVESGGGLVQAGGSLRLSCAASGRTFPYYAMGWYRQAPGKERELVAAIRGTAGNTYYADSVKGRFTISRDNAKNTVYLQMNSLKPEDTAVYYCAKGRPYWSPLTGYNYWGQGTQVTVSS”, “low polyreactivity”.

As for “QVQLVESGGGLVQAGGSLRLSCAASGRTFPYYAMGWYRQAPGKERELVAAISSSGGRTYYADSVKGRFTISRDNAKNTVYLQMNSLKPEDTAVYYRNVDAWYPYQGFLVGYYYWGQGTQVTVSS”, the “polyreactivity (PSR sort gate)” value is on record as “low polyreactivity”.

For the origin of these results see the nanobody polyreactivity screen of Harvey et al. (2022).
